{
  "source": "paper PMC6774396",
  "about": "(Frontiers in Immunology, 2019)",
  "key": {"THP-1 cells": {"tested_on": "THP-1 cells", "experiment": "Antibody-mediated clustering (AMC) of L-selectin-GFP/RFP, FLIM/FRET", "format": "cell-based, human", "conditions": "for change in FRET efficiency on AMC or versus comparator (in words) / FRET efficiency after AMC: DREG56 plus secondary antibody; for FRET efficiency after AMC: 10 min at 37°C, GFP/RFP pair", "text": "(A) Schematic representation of the cleavage site, transmembrane domain (TMD), and cytoplasmic tail of human L-selectin. Red underlined region of the cleavage site denotes the amino acids that are deleted in ΔM-N L-selectin. […] Red arrow points to the position of the cut site of the L-selectin cleavage domain. (B) Cells expressing matched levels of L-selectin-GFP/RFP in the following forms: WT, ΔM-N, SSAA, ΔM-N^SSAA, and R357A were subjected to AMC using Alexa Fluor 647-conjugated DREG56 or isotype-matched control, followed by goat anti-mouse secondary antibody (see Materials and Methods for more detail). Cells were plated onto poly-L-lysine-coated coverslips and prepared for FLIM/FRET analysis (see materials and methods). FLIM was used to measure the FRET efficiency between the GFP/RFP donor/acceptor pairs as a direct function of cytoplasmic tail clustering […]. At least 45 individual cells were analyzed over 3 independent clustering assays. (C) Representative images are shown for each cell line. The lifetime of fluorescence (Lftm) is expressed in a pseudocolour scale from red (low lifetime with a very high probability of interaction) to blue (high lifetime with a very low probability of interaction). […] Cells were lysed directly in protein loading buffer (containing the reducing agent, dithiothreitol) and resolved onto standard (lower panel) or phos-tag (upper panel) polyacrylamide gels. Antibodies to GFP and RFP were used to, respectively, probe ΔM-N and ΔM-N^SSAA on Western blots. […] Statistics: One-Way ANOVA Tukey's multiple comparison test. **p ≤ 0.01; ***p ≤ 0.001; ****p ≤ 0.0001.\nTHP-1 cells were adjusted the night before AMC to a density of 0.5 ×10^6 cells per mL. On the same day, 13 mm diameter glass coverslips (thickness “1”) were placed into the base of a 24 well dish, spotted with 100 μL of poly-L-lysine (PLL) to immobilize according to manufacturer's instruction. On the day of the assay, THP-1 cells were counted and adjusted to a density of 1 ×10^6 per mL in 500 μL containing antibody labeling buffer (RPMI culture medium containing FcR block [Miltenyi Biotec]). Cells were labeled with 2 μg per mL DREG56 for 30 min at 4°C, followed by washing (by centrifugation at 300 g and resuspension) in ice cold culture media to remove excess unbound antibody and then incubated back in ice cold labeling buffer containing secondary antibody conjugated to Alexa Fluor […] (Thermo Fisher) for a further 30 min at 4°C. Cells were then washed twice in ice cold neat RPMI and resuspended to 100 μL of neat ice cold RPMI before 80 μL of the cell suspension was seeded onto 13 mm diameter glass coverslips (thickness = “1”), which were pre-coated with PLL-coated the night before. The seeded cells were placed into a humidified cell culture incubator at 37°C and 5% CO2 for 10 min to drive clustering. Adhered cells were flooded in excess 4% paraformaldehyde and fixed for 15 min at room temperature. Fixed coverslips were washed 3 times in PBS and then treated in 10 mg/mL of Sodium Borohydride dissolved in phosphate buffered saline for 10 min at room temperature (to eliminate autofluorescence and enhance signal to noise ratios). Coverslips were subsequently washed in PBS to remove sodium borohydride and mounted using DAKO mounting medium.\nFLIM measurement of FRET was performed with a multiphoton microscope system as described previously ([8], [23]). A Nikon TE2000E inverted microscope, combined with an in-house scanner and Chameleon Ti:Sapphire ultrafast pulsed multiphoton laser (Coherent Inc.), was used for excitation of GFP (at 890 nm). Fluorescence lifetime imaging capability was provided by time-correlated, single-photon counting electronics (SPC 700; Becker & Hickl). A 40 × objective (NA 1.3) was used throughout (CFI60 Plan Fluor; Nikon), and data were acquired at 500 ± 20 nm through a bandpass filter (35–5040; Coherent Inc.). […]"}, "[1]": {"tested_on": "THP-1 cells over TNF-α-activated HUVEC", "experiment": "Pseudopod protrusion scoring in TEM under flow", "format": "cell-based, human", "conditions": "for cells with 2 protrusions / cells with 0 protrusions: 15 min time point, mean of 3 fields of view per flow experiment, three occasions, at least 180 cells per group, % printed; for cells with 2 protrusions: significance ** S367A p ≤ 0.01 (Tukey); for cells with 0 protrusions: significance *** S367A p ≤ 0.001, ** SSAA p ≤ 0.01 (Tukey)", "protocol": "(A) The number of protrusions formed over this period was scored as: zero, one, two, or >2. (B) The percentages of cells bearing these protrusions were scored at specific time points: 6 min (blue bars), 15 min (green bars), or 25 min (red bars). Supplementary Videos 2, 3, 4 provide examples of cells producing a range of protrusions as TEM proceeds. Data represent SEM of 3 fields of view per flow experiment, conducted on three separate occasions, and at least 180 cells analyzed per group. Values of the vertical lines indicate the differences in protrusion number (specifically “zero” and “two”) corresponding to each of the cell lines, for which statistical significance is shown in Table 1.\nAll flow experiments were performed using a 35 mm diameter Glycotech parallel plate flow chamber. Perfusion experiments were performed at 1.5 dyn/cm^2 using a Harvard Apparatus 2000 PHD syringe pump. Perfusion media consisted of: RPMI supplemented with L-glutamine, 10% FCS, 1% penicillin/streptomycin, 50 μM β-mercaptoethanol, and 25 mM HEPES. Human Umbilical Vein Endothelial Cells (HUVEC–Lonza) were seeded onto 35 mm diameter glass coverslips (no. 1 thickness; VWR) that were pre-coated with 10 μg/mL fibronectin (37°C for at least 1 h). Before each perfusion assay, HUVEC were stimulated overnight (16 h) with 10 ng/mL carrier-free recombinant human TNF-α (R&D Systems). Each perfusion assay was performed by injecting a bolus of cells for 6 min, followed by just perfusion media (without cells) for the […]. THP-1 cells were perfused at a density of 0.5 ×10^6 cells per mL. THP-1 cells treated with 10 μM TAPI-0 required a preincubation time of 10 min at 37°C before perfusion over TNF-α-activated HUVEC. Note that 10 μM TAPI-0 was also supplemented in the perfusate. Stills were acquired once every 10 seconds using 10 × objective lens."}, "[2]": {"conditions": "at least 45 cells, 3 independent assays"}},
  "data": [
    {"molecule": "WT: wild-type human L-selectin, C-terminally tagged with GFP or RFP, expressed in THP-1 cells (protein, left off: eGFP (donor copy) or mCherry (acceptor copy, called RFP), C-terminal, kept) WTYHYSEKPMNWQRARRFCRDNYTDLVAIQNKAEIEYLEKTLPFSRSYYWIGIRKIGGIWTWVGTNKSLTEEAENWGDGEPNNKKNKEDCVEIYIKRNKDAGKWNDDACHKLKAALCYTASCQPWSCSGHGECVEIINNYTCNCDVGYYGPQCQFVIQCEPLEAPELGTMDCTHPLGNFSFSSQCAFSCSEGTNLTGIEETTCGPFGNWSSPEPTCQVIQCEPLSAPDLGIMNCSHPLASFSFTSACTFICSEGTELIGKKKTICESSGIWSNPSPICQKLDKSFSMIKEGDYNPLFIPVAVMVTAFSGLAFIIWLARRLKKGKKSKRSMNDPY", "values": [
      {"measurement": "change in FRET efficiency on AMC or versus comparator (in words)", "setting": "THP-1 cells", "result": "significantly increased the FRET efficiency"},
      {"measurement": "FRET efficiency after AMC", "setting": "THP-1 cells; [2]", "result": 12.39, "unit": "%"},
      {"measurement": "FRET efficiency without AMC", "setting": "THP-1 cells; WT L-selectin-GFP/RFP before AMC (isotype-matched control), at least 45 cells, 3 independent assays", "result": 1.35, "unit": "%"},
      {"measurement": "cells with 2 protrusions", "setting": "[1]", "result": 36.2, "unit": "%"},
      {"measurement": "cells with 0 protrusions", "setting": "[1]", "result": 7.9, "unit": "%"}
    ]},
    {"molecule": "SSAA: L-selectin with Ser^364 and Ser^367 both mutated to alanines (protein, left off: eGFP (donor copy) or mCherry (acceptor copy, called RFP), C-terminal, kept) WTYHYSEKPMNWQRARRFCRDNYTDLVAIQNKAEIEYLEKTLPFSRSYYWIGIRKIGGIWTWVGTNKSLTEEAENWGDGEPNNKKNKEDCVEIYIKRNKDAGKWNDDACHKLKAALCYTASCQPWSCSGHGECVEIINNYTCNCDVGYYGPQCQFVIQCEPLEAPELGTMDCTHPLGNFSFSSQCAFSCSEGTNLTGIEETTCGPFGNWSSPEPTCQVIQCEPLSAPDLGIMNCSHPLASFSFTSACTFICSEGTELIGKKKTICESSGIWSNPSPICQKLDKSFSMIKEGDYNPLFIPVAVMVTAFSGLAFIIWLARRLKKGKKAKRAMNDPY", "values": [
      {"measurement": "change in FRET efficiency on AMC or versus comparator (in words)", "setting": "THP-1 cells", "result": "modest but significant drop in FRET efficiency compared to WT L-selectin"},
      {"measurement": "FRET efficiency after AMC", "setting": "THP-1 cells; [2]", "result": 9.25, "unit": "%"},
      {"measurement": "protrusive activity profile in TEM (in words)", "setting": "[1]; 6, 15 and 25 min of flow over TNF-α-activated HUVEC", "result": "phenocopied more the S367A than the S364A cell line"},
      {"measurement": "cells with 2 protrusions", "setting": "[1]", "result": 24.9, "unit": "%"},
      {"measurement": "cells with 0 protrusions", "setting": "[1]", "result": "22.4^** %"}
    ]}
  ]
}
